In publication PMC7667529 one finds LRP2-ICD level (western blot, anti-GFP) in TTR KO neurons transfected with short-megalin-GFP and stimulated with recombinant mouse TTR (55 µg/ml, 4 h) and LRP2-ICD level (western blot, anti-megalin) in non-transfected WT hippocampal neurons (15 DIV) after 5 min with recombinant mouse TTR (55 µg/ml) data, which are given here for 1 substance.

The assay concerns the target megalin (low-density lipoprotein receptor-related protein 2) (mouse (endogenous in hippocampal neurons)) (UniProt A2ARV4).

Sequence of megalin (low-density lipoprotein receptor-related protein 2) (mouse (endogenous in hippocampal neurons)) (A2ARV4 26-4660): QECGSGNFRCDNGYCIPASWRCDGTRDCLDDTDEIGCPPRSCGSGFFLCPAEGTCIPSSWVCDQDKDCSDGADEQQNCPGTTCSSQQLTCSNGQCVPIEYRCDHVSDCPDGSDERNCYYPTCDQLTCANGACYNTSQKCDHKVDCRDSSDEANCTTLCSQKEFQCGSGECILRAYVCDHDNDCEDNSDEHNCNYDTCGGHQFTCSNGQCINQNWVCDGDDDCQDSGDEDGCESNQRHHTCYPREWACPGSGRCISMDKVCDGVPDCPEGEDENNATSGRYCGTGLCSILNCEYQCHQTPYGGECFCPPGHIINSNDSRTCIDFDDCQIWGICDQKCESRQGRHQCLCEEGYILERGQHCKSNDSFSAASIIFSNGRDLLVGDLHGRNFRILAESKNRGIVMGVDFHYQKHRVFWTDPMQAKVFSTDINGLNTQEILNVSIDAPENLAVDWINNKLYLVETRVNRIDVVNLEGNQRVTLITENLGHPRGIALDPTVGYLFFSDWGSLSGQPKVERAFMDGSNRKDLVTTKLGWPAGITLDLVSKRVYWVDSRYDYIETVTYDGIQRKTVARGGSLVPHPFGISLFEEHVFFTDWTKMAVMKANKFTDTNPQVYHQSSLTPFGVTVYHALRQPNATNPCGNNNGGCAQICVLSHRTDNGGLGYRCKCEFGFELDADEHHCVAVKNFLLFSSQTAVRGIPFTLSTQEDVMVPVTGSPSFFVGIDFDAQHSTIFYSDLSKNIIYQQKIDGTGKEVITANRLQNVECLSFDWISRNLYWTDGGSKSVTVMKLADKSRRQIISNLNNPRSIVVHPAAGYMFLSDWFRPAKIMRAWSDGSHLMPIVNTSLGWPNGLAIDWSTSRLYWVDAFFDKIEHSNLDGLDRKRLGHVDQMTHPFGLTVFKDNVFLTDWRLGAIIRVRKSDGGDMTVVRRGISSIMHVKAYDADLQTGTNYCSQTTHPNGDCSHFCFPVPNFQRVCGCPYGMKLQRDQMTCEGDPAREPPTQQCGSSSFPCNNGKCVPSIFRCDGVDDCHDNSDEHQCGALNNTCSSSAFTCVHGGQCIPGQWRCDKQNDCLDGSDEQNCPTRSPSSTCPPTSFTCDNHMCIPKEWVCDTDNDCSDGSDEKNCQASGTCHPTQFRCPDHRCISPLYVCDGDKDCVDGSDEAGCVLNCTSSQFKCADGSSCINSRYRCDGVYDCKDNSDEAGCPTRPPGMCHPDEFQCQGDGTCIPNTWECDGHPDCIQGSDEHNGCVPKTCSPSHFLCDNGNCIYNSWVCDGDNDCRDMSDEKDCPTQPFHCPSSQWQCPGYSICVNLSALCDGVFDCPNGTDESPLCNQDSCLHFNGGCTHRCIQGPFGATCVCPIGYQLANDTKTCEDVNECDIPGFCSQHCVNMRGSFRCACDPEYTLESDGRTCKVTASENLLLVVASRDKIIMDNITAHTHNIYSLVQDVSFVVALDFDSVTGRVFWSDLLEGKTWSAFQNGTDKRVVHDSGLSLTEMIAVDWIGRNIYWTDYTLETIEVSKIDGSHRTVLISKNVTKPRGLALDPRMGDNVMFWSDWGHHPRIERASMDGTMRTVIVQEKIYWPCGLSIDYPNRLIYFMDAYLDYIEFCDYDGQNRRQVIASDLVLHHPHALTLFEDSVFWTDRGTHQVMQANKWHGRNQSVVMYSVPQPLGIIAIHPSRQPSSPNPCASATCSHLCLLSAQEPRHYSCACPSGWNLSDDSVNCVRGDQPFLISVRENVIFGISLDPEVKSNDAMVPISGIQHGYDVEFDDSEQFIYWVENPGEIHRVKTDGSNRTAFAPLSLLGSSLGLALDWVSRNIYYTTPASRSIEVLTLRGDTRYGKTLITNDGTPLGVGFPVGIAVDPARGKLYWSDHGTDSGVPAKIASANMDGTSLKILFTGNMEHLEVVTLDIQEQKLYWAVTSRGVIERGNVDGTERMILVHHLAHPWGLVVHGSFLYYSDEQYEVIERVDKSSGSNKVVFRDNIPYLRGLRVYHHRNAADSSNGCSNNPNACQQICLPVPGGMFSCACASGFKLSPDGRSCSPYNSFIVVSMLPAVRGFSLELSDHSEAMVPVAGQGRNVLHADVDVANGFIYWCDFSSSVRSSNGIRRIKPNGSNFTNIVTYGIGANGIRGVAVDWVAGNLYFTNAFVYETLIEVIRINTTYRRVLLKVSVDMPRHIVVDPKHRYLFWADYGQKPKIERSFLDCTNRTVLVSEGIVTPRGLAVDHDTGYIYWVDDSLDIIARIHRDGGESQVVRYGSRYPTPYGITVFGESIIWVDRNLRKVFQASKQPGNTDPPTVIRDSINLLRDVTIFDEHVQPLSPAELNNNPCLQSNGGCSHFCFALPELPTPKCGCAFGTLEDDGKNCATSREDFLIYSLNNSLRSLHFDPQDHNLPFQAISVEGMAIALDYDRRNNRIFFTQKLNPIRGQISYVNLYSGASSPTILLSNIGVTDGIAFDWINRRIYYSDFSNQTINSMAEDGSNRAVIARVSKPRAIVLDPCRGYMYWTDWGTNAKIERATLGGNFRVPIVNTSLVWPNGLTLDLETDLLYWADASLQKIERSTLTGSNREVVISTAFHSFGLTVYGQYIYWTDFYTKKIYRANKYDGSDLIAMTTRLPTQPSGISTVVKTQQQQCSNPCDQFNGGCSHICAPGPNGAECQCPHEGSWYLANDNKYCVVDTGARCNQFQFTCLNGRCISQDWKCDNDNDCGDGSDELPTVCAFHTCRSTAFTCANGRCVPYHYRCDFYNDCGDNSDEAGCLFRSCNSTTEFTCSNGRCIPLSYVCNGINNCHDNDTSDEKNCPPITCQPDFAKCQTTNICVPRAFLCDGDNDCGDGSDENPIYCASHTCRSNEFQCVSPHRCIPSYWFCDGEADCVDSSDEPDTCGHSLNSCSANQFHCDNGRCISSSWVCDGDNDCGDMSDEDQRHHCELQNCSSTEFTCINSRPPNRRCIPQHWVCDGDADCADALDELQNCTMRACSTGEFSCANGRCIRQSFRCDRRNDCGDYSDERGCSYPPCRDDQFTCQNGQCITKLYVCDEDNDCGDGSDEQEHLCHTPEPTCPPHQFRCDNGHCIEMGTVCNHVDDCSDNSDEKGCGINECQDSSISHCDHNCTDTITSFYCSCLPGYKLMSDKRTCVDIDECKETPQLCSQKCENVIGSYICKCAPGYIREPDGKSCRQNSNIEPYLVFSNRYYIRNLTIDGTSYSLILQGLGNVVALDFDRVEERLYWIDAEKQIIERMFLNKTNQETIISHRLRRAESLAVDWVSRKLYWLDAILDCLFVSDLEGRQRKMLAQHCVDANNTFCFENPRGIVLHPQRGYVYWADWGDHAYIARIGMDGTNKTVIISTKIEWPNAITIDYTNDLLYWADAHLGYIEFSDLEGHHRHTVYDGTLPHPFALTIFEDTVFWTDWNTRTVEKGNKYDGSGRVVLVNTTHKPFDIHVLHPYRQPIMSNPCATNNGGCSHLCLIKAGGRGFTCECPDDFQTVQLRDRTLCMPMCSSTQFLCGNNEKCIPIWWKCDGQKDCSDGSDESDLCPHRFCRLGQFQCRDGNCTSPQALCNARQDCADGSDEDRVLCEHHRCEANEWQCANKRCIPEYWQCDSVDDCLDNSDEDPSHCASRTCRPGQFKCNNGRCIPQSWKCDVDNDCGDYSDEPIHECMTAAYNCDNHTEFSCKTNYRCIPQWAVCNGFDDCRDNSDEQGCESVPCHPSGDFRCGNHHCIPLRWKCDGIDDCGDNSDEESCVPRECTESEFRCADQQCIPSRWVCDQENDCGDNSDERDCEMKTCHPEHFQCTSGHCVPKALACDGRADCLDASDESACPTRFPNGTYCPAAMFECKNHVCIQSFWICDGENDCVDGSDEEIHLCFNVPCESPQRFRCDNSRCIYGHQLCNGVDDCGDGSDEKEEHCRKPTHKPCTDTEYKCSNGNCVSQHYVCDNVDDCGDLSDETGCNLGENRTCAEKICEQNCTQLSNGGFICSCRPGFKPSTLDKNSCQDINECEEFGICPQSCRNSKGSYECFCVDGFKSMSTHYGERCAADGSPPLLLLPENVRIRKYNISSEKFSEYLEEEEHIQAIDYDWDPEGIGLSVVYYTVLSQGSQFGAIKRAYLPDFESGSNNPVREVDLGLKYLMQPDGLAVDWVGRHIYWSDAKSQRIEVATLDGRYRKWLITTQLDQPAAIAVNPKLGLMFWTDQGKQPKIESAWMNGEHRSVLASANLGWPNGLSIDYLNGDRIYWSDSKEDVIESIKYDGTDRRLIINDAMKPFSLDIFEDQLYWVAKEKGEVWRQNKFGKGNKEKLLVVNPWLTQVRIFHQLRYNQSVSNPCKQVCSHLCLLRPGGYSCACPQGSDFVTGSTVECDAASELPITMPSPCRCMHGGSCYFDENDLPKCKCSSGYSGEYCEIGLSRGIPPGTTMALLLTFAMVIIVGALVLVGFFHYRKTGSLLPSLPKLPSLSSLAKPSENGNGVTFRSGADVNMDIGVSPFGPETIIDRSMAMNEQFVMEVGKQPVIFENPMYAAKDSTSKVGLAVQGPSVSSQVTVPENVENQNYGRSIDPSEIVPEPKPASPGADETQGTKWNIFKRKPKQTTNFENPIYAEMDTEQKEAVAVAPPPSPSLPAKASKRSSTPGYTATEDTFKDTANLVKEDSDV

For “recombinant mouse transthyretin (from UniProt P07309 21-147) (ligand)”, the LRP2-ICD level (western blot, anti-GFP) in TTR KO neurons transfected with short-megalin-GFP and stimulated with recombinant mouse TTR (55 µg/ml, 4 h) stood at 50 % increase; the LRP2-ICD level (western blot, anti-megalin) in non-transfected WT hippocampal neurons (15 DIV) after 5 min with recombinant mouse TTR (55 µg/ml) came out at 5 fold.
